Tests used:
[1] = test system: T1, MBP-TAp63γ (Mus musculus), O88898-5; test: fluorescence anisotropy; details: 10 mM potassium phosphate pH 7.6, 200 mM NaCl, room temperature, 30 min, 15 nM p21 DNA (300 nM for controls), protein 0.1-15 µM monomer
T1 sequence: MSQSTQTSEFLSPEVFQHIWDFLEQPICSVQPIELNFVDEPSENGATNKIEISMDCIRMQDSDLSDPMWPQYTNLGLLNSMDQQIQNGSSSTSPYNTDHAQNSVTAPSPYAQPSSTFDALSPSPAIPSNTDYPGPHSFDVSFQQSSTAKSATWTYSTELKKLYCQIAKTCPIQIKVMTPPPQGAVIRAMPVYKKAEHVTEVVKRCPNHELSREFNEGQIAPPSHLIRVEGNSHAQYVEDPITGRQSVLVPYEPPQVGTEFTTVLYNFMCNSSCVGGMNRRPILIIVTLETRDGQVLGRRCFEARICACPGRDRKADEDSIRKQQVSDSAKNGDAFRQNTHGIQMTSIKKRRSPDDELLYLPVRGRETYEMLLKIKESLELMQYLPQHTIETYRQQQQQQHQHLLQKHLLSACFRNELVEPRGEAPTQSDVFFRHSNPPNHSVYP

[2] = target: T2, MBP-TAp63αFTL (Mus musculus) (UniProt O88898); test: fluorescence anisotropy; details: 10 mM potassium phosphate pH 7.6, 200 mM NaCl, room temperature, 30 min, 15 nM p21 DNA (300 nM for controls), protein 0.1-15 µM monomer
T2 sequence: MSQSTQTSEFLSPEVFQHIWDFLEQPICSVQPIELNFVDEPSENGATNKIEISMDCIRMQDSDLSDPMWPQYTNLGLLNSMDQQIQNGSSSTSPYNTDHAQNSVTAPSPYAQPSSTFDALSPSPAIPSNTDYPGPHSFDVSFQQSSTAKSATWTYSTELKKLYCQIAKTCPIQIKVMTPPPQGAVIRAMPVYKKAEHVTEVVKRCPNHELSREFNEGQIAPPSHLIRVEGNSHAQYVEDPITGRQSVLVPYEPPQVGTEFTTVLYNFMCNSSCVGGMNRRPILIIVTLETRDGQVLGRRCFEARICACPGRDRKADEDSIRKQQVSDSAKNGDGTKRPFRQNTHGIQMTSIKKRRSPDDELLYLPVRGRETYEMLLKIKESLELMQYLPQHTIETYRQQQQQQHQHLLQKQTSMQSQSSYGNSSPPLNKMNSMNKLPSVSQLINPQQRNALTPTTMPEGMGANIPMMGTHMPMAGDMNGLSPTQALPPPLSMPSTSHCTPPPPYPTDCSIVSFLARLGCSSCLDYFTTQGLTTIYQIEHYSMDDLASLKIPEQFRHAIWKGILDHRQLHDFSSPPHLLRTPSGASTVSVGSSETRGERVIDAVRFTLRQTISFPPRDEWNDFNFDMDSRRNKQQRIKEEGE

[3] = target: His-MBP-ΔNp63α^PPR (mouse); test: SEC; purified proteins from E. coli, 3–15 μM, Superose 6 10/300 GL, 16°C, 10 mM potassium phosphate pH 7.6, 200 mM NaCl; column calibrated with globular standards
MBP-TAp63α (mouse) [4] = test: as above
MBP-TAp63α (mouse) [5] = test: SEC-MALS; Superdex 200 5/150 GL, room temperature, 80 μl of purified protein of ~1 mg/ml, 0.3 ml/min
MBP-TAp63α (mouse) [6] = test: native MS; LILBID-MS, ~10 μM protein dialyzed against 10 mM potassium phosphate pH 7.6 without NaCl
MBP-TAp63α (mouse) [7] = test: AUC; sedimentation velocity, 45,000 rpm, 4 μM protein, 4°C, 20 mM potassium phosphate pH 7.5, 200 mM NaCl, 2 mM dithiothreitol
MBP-TAp63α (mouse) [8] = test: AUC; sedimentation equilibrium, 7000 and 9000 rpm, 1–8 μM monomer, 4°C, 20 mM potassium phosphate pH 7.5, 200 mM NaCl, 2 mM dithiothreitol
[9] = target: TAp63α (murine, N-terminal His6-tag, from pBH4) (mouse); test: SEC; purified proteins from E. coli, 3–15 μM, Superose 6 10/300 GL, 16°C, 10 mM potassium phosphate pH 7.6, 200 mM NaCl; column calibrated with globular standards
[10] = target: TAp63α (murine, N-terminal His6-tag, from pBH4) (mouse); test: SEC-MALS; Superdex 200 5/150 GL, room temperature, 80 μl of purified protein of ~1 mg/ml, 0.3 ml/min
p63 (Homo sapiens) = p63 (Homo sapiens) (UniProt Q9H3D4); details: cited from earlier work
[11] = second binding site of two-site fit, suggested unspecific
[12] = two-site fit, first site, monomer concentration

Chain of p63 (Q9H3D4 whole entry): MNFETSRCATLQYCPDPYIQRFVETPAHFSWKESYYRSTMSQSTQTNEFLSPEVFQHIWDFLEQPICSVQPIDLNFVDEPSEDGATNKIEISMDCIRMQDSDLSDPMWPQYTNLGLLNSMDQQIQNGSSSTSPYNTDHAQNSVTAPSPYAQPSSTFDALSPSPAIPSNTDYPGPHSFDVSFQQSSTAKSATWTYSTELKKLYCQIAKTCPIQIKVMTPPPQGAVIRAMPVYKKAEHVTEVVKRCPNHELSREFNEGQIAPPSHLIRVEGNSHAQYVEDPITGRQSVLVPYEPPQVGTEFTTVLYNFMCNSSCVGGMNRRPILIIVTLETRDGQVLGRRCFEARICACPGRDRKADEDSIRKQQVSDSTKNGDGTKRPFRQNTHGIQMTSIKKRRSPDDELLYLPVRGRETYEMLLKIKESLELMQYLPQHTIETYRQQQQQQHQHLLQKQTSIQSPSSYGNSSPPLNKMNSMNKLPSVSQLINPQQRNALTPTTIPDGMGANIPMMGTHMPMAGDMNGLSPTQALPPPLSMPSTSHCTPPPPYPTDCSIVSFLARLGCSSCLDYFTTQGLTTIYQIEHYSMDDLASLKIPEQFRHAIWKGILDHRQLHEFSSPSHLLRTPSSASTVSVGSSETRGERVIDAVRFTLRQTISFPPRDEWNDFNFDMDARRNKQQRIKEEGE

Substance: GGCAGGAACATGTCCCAACATGTTGAGCCG (double strand) [p21 promoter response element]
- Kd [1, 11]: 20800 nM
- Kd [1, 12]: 340 nM
- Kd [2, 11]: 47100 nM
- Kd [2, 12]: 380 nM

Substance: His-MBP-ΔNp63α^PPR (natural protein)
- stoichiometry N [3]: 4

Substance: MBP-TAp63α (natural protein)
- stoichiometry N (MBP-TAp63α (mouse) [4]): 2
- stoichiometry N (MBP-TAp63α (mouse) [5]): 2
- stoichiometry N (MBP-TAp63α (mouse) [6]): 2
- stoichiometry N (MBP-TAp63α (mouse) [7]): 2
- stoichiometry N (MBP-TAp63α (mouse) [8]): 2

Substance: TAp63α (murine, N-terminal His6-tag, from pBH4) (natural protein)
- stoichiometry N [9]: 2
- stoichiometry N [10]: 2

Substance: p63 (from UniProt Q9H3D4)
- Kd (p63 (Homo sapiens)): 12 nM
